Measurements: article doi:10.1101/449629

Tests used:
[1] = target: Recombinant hamster MIF (Syrian golden hamster macrophage migration inhibitory factor) (Syrian golden hamster (Mesocricetus auratus)); test: crystal structure
[2] = target: Recombinant hamster MIF (Syrian golden hamster macrophage migration inhibitory factor) (Syrian golden hamster (Mesocricetus auratus)); test: SEC

Substance: Recombinant hamster MIF (Syrian golden hamster macrophage migration inhibitory factor) (from UniProt A0A140EDM8 1-115) (natural protein)
- stoichiometry N [1]: 3
- stoichiometry N [2]: 3
